Broadly, the Kd is the constant that tells how readily two partners part at equilibrium.

The values below come from article PMC13107021, “Structural basis for suramin binding to the C-terminal domain of the SARS-CoV-2 nucleocapsid protein”.

In the data set the target is SARS-CoV-2 N-CTD (nucleocapsid C-terminal domain) (SARS-CoV-2, UniProt P0DTC9 247-364). Nature of the data set: BLI; BLI and EMSA: 25 mM sodium phosphate, 50 mM NaCl, pH 6.0; EMSA 25 C, 30 min, 10 uM RNA, 20% native PAGE. As to conditions: protein: recombinant; biotinylated for BLI; 15N-labelled for NMR; chain copies: 2; label: none.

B1: 15-nt SARS-CoV-2 genome-derived RNA (ssRNA)
RNA: AUAUGGAAGAGCCCUA
B1: the Kd was about 10.1 µM.
